Measured values: patent US20070092444A1, “Inhibition of inward sodium currents in cancer” (priority 2003, published 2007)
Where two headings read alike, the source gives them in different places.

Experiments:
[1] = molecular target: T1, ASIC1 (recombinant: in vitro translated in proteoliposomes, expressed in Xenopus oocytes, reconstituted in planar lipid bilayers) (UniProt P78348)
T1 sequence: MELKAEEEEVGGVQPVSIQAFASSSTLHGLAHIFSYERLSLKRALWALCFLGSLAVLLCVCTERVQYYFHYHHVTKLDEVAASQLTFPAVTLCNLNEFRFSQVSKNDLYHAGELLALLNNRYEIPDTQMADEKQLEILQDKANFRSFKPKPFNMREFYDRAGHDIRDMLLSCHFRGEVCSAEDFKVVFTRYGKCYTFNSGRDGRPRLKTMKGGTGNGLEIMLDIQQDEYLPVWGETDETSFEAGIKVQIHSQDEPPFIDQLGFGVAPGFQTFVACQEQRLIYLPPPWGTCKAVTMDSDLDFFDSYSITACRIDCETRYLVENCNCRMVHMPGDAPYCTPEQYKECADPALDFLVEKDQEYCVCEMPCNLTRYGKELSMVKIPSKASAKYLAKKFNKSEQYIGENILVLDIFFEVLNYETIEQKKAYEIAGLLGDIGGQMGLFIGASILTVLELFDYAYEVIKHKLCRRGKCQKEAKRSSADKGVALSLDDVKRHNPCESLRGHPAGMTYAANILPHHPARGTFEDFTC

[2] = molecular target: T1, ASIC1 (recombinant: in vitro translated in proteoliposomes, expressed in Xenopus oocytes, reconstituted in planar lipid bilayers); assay: cell-based or functional assay
ASIC1 = molecular target: T2, ASIC1 (Homo sapiens, UniProt P78348); assay: Wild-type ASIC1 in planar lipid bilayers, single channel recording; assay type: biochemical; settings: PKC isoforms
T2 sequence (P78348 1-528): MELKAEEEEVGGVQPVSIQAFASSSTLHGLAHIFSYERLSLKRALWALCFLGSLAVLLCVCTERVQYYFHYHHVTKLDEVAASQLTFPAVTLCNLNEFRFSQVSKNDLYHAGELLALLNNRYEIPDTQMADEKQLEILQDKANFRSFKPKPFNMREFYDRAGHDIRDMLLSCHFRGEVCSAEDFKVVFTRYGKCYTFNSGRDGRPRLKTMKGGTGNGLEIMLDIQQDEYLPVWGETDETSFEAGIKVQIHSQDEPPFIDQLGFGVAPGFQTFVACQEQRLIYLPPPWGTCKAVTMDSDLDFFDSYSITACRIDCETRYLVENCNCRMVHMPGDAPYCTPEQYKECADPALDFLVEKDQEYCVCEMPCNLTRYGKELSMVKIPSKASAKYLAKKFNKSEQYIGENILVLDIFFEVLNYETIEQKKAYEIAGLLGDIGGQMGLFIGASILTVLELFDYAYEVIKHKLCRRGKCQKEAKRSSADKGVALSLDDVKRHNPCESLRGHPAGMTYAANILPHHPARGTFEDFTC
Description: An expanded time scale is shown below each trace.
Wild-type ASIC1 incorporated into planar lipid bilayers at neutral pH or at acidic extracellular pH was also examined.
Membrane potential was held at −60 mV, and the pHo was step decreased to 4.0 for 10 s, and then returned to 7.4 for 30 s before repeating the sequence.
Control single channel were record for ASIC1 containing channels in bilayers bathed with symmetrical 100 mM NaCl, 10 mM MOPS, pH 6.2. Holding potential was +100 mV referred to the virtually grounded trans chamber. For illustration purposes, data shown were digitally filtered at 100 Hz using pCLAMP software (Axon Instruments) subsequent to acquisition of the analog signal filtered at 300 Hz with an 8-pole Bessel filter before acquisition at 1 ms per point. An expanded time scale is shown below each trace (FIG. 21).
Representative dwell-time histograms were constructed following the events analyses performed using pCLAMP software (Axon Instruments) on single channel recordings of 10 min in duration filtered at 300 Hz with an 8-pole Bessel filter before acquisition at 1 ms per point using pCLAMP software and hardware. The event detection thresholds were 50% in amplitude of transition between closed and open states, and 3 ms in duration. Closed and open time constants shown were determined by fitting the closed and open time histograms to the probability density function (Sigworth and Sine, 1987), and using the Simplex least square routine of pSTAT. Number of bins per decade in all histograms was 16.

[3] = molecular target: T1, ASIC1 (recombinant: in vitro translated in proteoliposomes, expressed in Xenopus oocytes, reconstituted in planar lipid bilayers); assay: cell-based or functional assay; remark: listed apart in the source

With PKCδ the “in vitro phosphorylation of ASIC1” value [1] was “PKC holoenzyme, PKCβI, PKCβII, PKCδ, PKCε, and PKCζ phosphorylated ASIC1 in vitro”.

In the case of PKCε (enzyme), the reversal of the PKCβI+PKCβII inhibition of ASIC1 activity in bilayers (PKCε and PKCζ in combination) [2] is reported as 5 fold excess.

With PKCβI the “ASIC1 activity in planar lipid bilayers (PKCβI and PKCβII added in combination)” value [1] was “PKC holoenzyme or the combination of PKCβI and PKCβII isoforms inhibited ASIC1” and the “in vitro phosphorylation of ASIC1” value [1] was “PKC holoenzyme, PKCβI, PKCβII, PKCδ, PKCε, and PKCζ phosphorylated ASIC1 in vitro”.

B1: PKCζ (enzyme, UniProt Q05513 1-592, looked up, species assumed)
Protein kinase C zeta type: MPSRTGPKMEGSGGRVRLKAHYGGDIFITSVDAATTFEELCEEVRDMCRLHQQHPLTLKWVDSEGDPCTVSSQMELEEAFRLARQCRDEGLIIHVFPSTPEQPGLPCPGEDKSIYRRGARRWRKLYRANGHLFQAKRFNRRAYCGQCSERIWGLARQGYRCINCKLLVHKRCHGLVPLTCRKHMDSVMPSQEPPVDDKNEDADLPSEETDGIAYISSSRKHDSIKDDSEDLKPVIDGMDGIKISQGLGLQDFDLIRVIGRGSYAKVLLVRLKKNDQIYAMKVVKKELVHDDEDIDWVQTEKHVFEQASSNPFLVGLHSCFQTTSRLFLVIEYVNGGDLMFHMQRQRKLPEEHARFYAAEICIALNFLHERGIIYRDLKLDNVLLDADGHIKLTDYGMCKEGLGPGDTTSTFCGTPNYIAPEILRGEEYGFSVDWWALGVLMFEMMAGRSPFDIITDNPDMNTEDYLFQVILEKPIRIPRFLSVKASHVLKGFLNKDPKERLGCRPQTGFSDIKSHAFFRSIDWDLLEKKQALPPFQPQITDDYGLDNFDTQFTSEPVQLTPDDEDAIKRIDQSEFEGFEYINPLLLSTEESV
B1 was tested, and the “effect on ASIC1 activity in bilayers” value (ASIC1) was “Neither PKCε, PKCζ, nor their combination had any effect”, the “ASIC1 activity in planar lipid bilayers” value [1] was “Neither PKCε, PKCζ, nor their combination had any effect on ASIC1 activity in bilayers” and the “in vitro phosphorylation of ASIC1” value [1] was “PKC holoenzyme, PKCβI, PKCβII, PKCδ, PKCε, and PKCζ phosphorylated ASIC1 in vitro”. For the same molecule, the reversal of the PKCβI+PKCβII inhibition of ASIC1 activity in bilayers (PKCε and PKCζ in combination) [3] was 5 fold excess.

B2: PKCε: PKC isoform (protein, UniProt Q02156 1-737, looked up)
Protein kinase C epsilon type: MVVFNGLLKIKICEAVSLKPTAWSLRHAVGPRPQTFLLDPYIALNVDDSRIGQTATKQKTNSPAWHDEFVTDVCNGRKIELAVFHDAPIGYDDFVANCTIQFEELLQNGSRHFEDWIDLEPEGRVYVIIDLSGSSGEAPKDNEERVFRERMRPRKRQGAVRRRVHQVNGHKFMATYLRQPTYCSHCRDFIWGVIGKQGYQCQVCTCVVHKRCHELIITKCAGLKKQETPDQVGSQRFSVNMPHKFGIHNYKVPTFCDHCGSLLWGLLRQGLQCKVCKMNVHRRCETNVAPNCGVDARGIAKVLADLGVTPDKITNSGQRRKKLIAGAESPQPASGSSPSEEDRSKSAPTSPCDQEIKELENNIRKALSFDNRGEEHRAASSPDGQLMSPGENGEVRQGQAKRLGLDEFNFIKVLGKGSFGKVMLAELKGKDEVYAVKVLKKDVILQDDDVDCTMTEKRILALARKHPYLTQLYCCFQTKDRLFFVMEYVNGGDLMFQIQRSRKFDEPRSRFYAAEVTSALMFLHQHGVIYRDLKLDNILLDAEGHCKLADFGMCKEGILNGVTTTTFCGTPDYIAPEILQELEYGPSVDWWALGVLMYEMMAGQPPFEADNEDDLFESILHDDVLYPVWLSKEAVSILKAFMTKNPHKRLGCVASQNGEDAIKQHPFFKEIDWVLLEQKKIKPPFKPRIKTKRDVNNFDQDFTREEPVLTLVDEAIVKQINQEEFKGFSYFGEDLMP
In the case of B2, the “effect on ASIC1 activity in bilayers” value (ASIC1) is reported as “Neither PKCε, PKCζ, nor their combination had any effect”.
